Data set [1] addresses CENP-C-CD R521A R521A (Homo sapiens) (UniProt Q03188). In words: EMSA. The following applies: apparent Kd; 200 nM nucleosome; EMSA: 200 nM nucleosomes, 20 mM Tris-Cl pH 7.5, 1 mM EDTA, 1 mM DTT, on ice 1 h, 5% native PAGE; footprinting at room temperature, 5 min. In general terms: In EMSA bound probe runs differently from free probe, usually more slowly.
The target of data set [2] is CENP-C-CD R522A R522A (Homo sapiens) (UniProt Q03188). In words: EMSA. As to conditions: apparent Kd; 200 nM nucleosome; EMSA: 200 nM nucleosomes, 20 mM Tris-Cl pH 7.5, 1 mM EDTA, 1 mM DTT, on ice 1 h, 5% native PAGE; footprinting at room temperature, 5 min.

Turning to “ATCAAATATCCACCTGCAGATTCTACCAAAAGTGTATTTGGAAACTGCTCCATCAAAAGGCATGTTCAGCTCTGTGAGTGAAACTCCATCATCACAAAGAATATTCTGAGAATGCTTCCGTTTGCCTTTTATATGAACTTCCTCGAT (double strand) [CENP-A NCP, Cy5-H2B, 147 bp DNA]”, the Kd in data set [1] is 267 nM; in data set [2], 655 nM.

The values above are taken from publication PMC5472775.
